Results on three molecules are retold here after US20180037644A1 (Pfizer, published 2018).

The Kd is the constant that tells how readily two partners part at equilibrium. A word on the koff: it is the first-order rate constant of dissociation. In general, kon refers to the rate constant with which the complex forms.

The target of test [1] is T1, human IL-33 WT, reduced with DTT (human, UniProt O95760 112-270).
T1 construct: Wild-type cysteines, FLAG tag in the entry; reduced with 3 mM DTT before use; also called huIL33 wt; hu IL-33 (WT + DTT)
T1 sequence: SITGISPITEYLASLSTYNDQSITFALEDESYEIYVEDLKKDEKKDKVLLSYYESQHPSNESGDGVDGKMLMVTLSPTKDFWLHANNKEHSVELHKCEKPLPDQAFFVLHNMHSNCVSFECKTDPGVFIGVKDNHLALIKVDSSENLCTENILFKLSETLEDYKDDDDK
The test can be described thus: SPR, IL-33 amine-coupled to CM5, rat Fab in solution, 37 C. The procedure: Parallel studies were performed with non-reduced IL-33 and with IL-33 samples that had been reduced with 3 mM DTT for 3 hr. at room temperature prior to immobilization. […] Flow cell 1 was activated and blocked for use as a reference flow cell. […] Dissociation was monitored for 3600 seconds. Biacore kinetic assays were conducted at 37° C. at a collection rate of 1 Hz on a Biacore T200 instrument (GE Healthcare). Rate constants and affinities were determined by fitting the resulting sensorgram data to a 1:1 model in Biacore T200 Evaluation software version 1.0 (GE Healthcare).
In general terms: Surface plasmon resonance follows binding to a sensor surface in real time, without labels.

The target of another test is T2, IL-36γ (UniProt Q9NZH8 18-169).
T2 sequence (looked up): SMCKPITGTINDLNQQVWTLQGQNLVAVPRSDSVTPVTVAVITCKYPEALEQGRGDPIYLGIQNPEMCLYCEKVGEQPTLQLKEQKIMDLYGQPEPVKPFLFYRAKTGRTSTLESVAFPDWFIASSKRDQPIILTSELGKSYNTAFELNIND
The test can be described thus: SPR (Biacore T200), Fab captured on the chip, cytokine injected. From the text: (§1) The panel of cytokines included IL-1α, IL-1β, IL-18, IL-36α, and IL-36γ.

The next test has as its target IL-1β (UniProt P01584 117-269). The description is as above.
Source text: as §1

The target in another test is T3, IL-1α (UniProt P01583 113-271).
T3 sequence (looked up): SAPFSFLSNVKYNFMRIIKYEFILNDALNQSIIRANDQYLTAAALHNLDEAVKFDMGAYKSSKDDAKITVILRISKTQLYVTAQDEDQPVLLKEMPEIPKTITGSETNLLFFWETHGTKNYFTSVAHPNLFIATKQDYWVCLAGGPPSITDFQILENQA
Described as above.
Source text: as §1

For the next test, the target named is T4, IL-18 (UniProt Q14116 37-193).
T4 sequence (looked up): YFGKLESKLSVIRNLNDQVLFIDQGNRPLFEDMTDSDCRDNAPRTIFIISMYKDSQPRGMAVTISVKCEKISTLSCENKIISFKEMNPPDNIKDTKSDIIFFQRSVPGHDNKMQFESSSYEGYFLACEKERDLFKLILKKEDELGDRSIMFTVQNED
The description is as above.
Source text: as §1

A further test has as its target T5, IL-36α (UniProt Q9UHA7 6-158).
T5 sequence (looked up): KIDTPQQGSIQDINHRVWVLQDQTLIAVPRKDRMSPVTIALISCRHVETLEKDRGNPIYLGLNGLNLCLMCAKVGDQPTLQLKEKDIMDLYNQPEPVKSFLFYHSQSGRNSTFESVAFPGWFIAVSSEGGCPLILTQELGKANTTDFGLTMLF
Described as above.
Source text: as §1

Test [2] has as its target T6, wild-type cynomolgus monkey IL-33 (cynomolgus monkey).
T6 construct: Used reduced (DTT-treated); His6 in the entry; also called cyno IL-33 (WT + DTT); pfe cyno WT IL-33
T6 chain: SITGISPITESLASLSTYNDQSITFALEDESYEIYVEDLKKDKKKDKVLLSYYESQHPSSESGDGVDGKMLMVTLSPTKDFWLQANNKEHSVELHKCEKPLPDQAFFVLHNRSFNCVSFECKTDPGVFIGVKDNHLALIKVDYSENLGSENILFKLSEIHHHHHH
The test can be described thus: SPR, IL-33 amine-coupled to CM5, Fab in solution, 37 C, Experiment 2. The procedure: (§2) Biacore kinetic assays were conducted at 37° C. at a collection rate of 1 Hz on a Biacore T200 instrument (GE Healthcare). Reduced and non-reduced wild-type human IL-33 and reduced wild-type cynomolgus monkey IL-33 were covalently coupled to a CM5 sensor chip (catalogue number BR100530, GE Healthcare) using an amine coupling kit (catalogue number BR100050, GE Healthcare) according to the manufacturer's protocol. Flow cell 1 was activated and blocked for use as a reference flow cell. […] The dilution and running buffer was HBS-EP+(10 mM HEPES pH 7.4, 0.15M NaCl, 3 mM EDTA, 0.05% P-20). Rate constants and affinities were determined by fitting the resulting sensorgram data to a 1:1 model in Biacore T200 Evaluation software version 1.0 (GE Healthcare). […] Kinetic properties of the bivalent IgG cannot be directly compared to those of monovalent Fab fragments and are not presented here.

For test [3], the target named is T1, human IL-33 WT, reduced with DTT. The description is as above. The procedure:
as §2

The target of test [4] is T7, cynomolgus monkey IL-33 (cys mut) (cynomolgus monkey).
T7 construct: Variant in which the three cysteine residues are serine; N-terminal Met and C-terminal His6 in the entry; also called cyno IL-33; cyno IL-33 (cys mut)
T7 chain: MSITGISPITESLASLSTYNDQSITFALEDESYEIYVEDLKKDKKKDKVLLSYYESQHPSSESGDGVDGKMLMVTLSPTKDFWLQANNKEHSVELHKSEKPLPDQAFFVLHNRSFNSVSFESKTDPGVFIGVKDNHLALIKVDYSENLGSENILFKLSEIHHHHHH
The test can be described thus: SPR, IL-33 amine-coupled to CM5, Fab in solution, 37 C. As to the method: (§3) Biacore kinetic assays were conducted at 37° C. at a collection rate of 1 Hz on a Biacore T200 instrument (GE Healthcare). Human IL33 (mm2), cynomolgus monkey IL-33, and reduced huIL33 wt were covalently coupled to a CM5 sensor chip (catalogue number BR100530, GE Healthcare) using an amine coupling kit (catalogue number BR100050, GE Healthcare) according to the manufacturer's protocol. […] The dilution and running buffer was HBS-EP+(10 mM HEPES pH 7.4, 0.15M NaCl, 3 mM EDTA, 0.05% P-20). Rate constants and affinities were determined by fitting the resulting sensorgram data to a 1:1 model in Biacore T200 Evaluation software version 1.0 (GE Healthcare).

In the next test the target is T8, human IL-33 (mm2) (human, UniProt O95760 112-270).
T8 construct: Variant in which all four cysteine residues are serine; the entry carries an N-terminal Met and a C-terminal His6; Biotinylated in some assays; also called hIL-33 (mm2); huIL-33 (mm2)
T8 chain: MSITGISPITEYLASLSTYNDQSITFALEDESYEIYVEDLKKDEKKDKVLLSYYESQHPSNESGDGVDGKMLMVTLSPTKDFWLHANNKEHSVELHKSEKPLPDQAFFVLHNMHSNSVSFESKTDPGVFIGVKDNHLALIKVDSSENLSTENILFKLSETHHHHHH
The test is described as above. As to the method: as §3

The target of test [5] is T1, human IL-33 WT, reduced with DTT. The test is described as above. The procedure: as §3
Test [6] concerns the target T6, wild-type cynomolgus monkey IL-33. Kind of test: SPR, Experiment 1; reference: human IL-33 (WT + DTT). The procedure:
as §2

For test [7] the target is unchanged. Kind of test: SPR, IL-33 amine-coupled to CM5, Fab in solution, 37 C, Experiment 1. The procedure:
as §2

The target of test [8] is T1, human IL-33 WT, reduced with DTT. The test is described as above. As to the method:
as §2

The target in test [9] is T6, wild-type cynomolgus monkey IL-33. Kind of test: SPR, Experiment 2; reference: human IL-33 (WT + DTT). As to the method: as §2

Numbering of substitutions follows the chain as printed.

B1: rat 7E8 Fab (Fab, V domains shown)
VH: EVQLVETGGGLVQPGRSLKLSCKTSGFTFSSYWMYWIRQAPGKGLEWVSSITPNGGNTYYPDSVKGRFTISRDNAENTIYLQMSSLRSEDTATYFCAKGHYYYTSYSLGYWGQGSLVTVSS
VL: EIQMTQSPSVLSASVGDRVTLSCKASQNINKHLDWYQQKLGEAPKLLIYFTNNLQTGIPSRFSGSGSGTDCTLTINSLQPGDVATYFCFQYNNGWTFGGGTKLELD
notes: Fab of the parental rat antibody; also called parental rat Fab 7E8
On to B1, for which, in test [1], the Kd is 0.0442 nM, the koff is 0.000116 s⁻¹ and the kon turned out to be 2.55e+06 M⁻¹ s⁻¹.

B2: IL33-158LS Fab (Fab, V domains shown)
VH: EVQLVESGGGLVQPGGSLRLSCAASGFTFSSYWMYWVRQAPGKGLEWVAAITPNAGEDYYPESVKGRFTISRDNAKNSLYLQMNSLRAEDTAVYYCARGHYYYTSYSLGYWGQGTLVTVSS
VL: DIQMTQSPSSLSASVGDRVTITCKASQNINKHLDWYQQKPGKAPKLLIYFTNNLQTGVPSRFSGSGSGTDFTLTISSLQPEDFATYYCFQYNQGWTFGGGTKVEIKR
With B2, the binding result with IL-36γ, with IL-1β, with IL-1α, in the test with IL-18 and in the test with IL-36α was “no binding” each time. For the same molecule, the Kd is 0.228 nM in test [2]; 0.101 nM in test [3]; 0.0104 nM in test [4]; 0.013 nM with human IL-33 (mm2); 0.0696 nM in test [5]; 0.139 nM in [7]. Binding in test [8] was characterised by a dissociation constant (Kd) of 0.106 nM. Moreover, the koff in test [2] was 0.00121 s⁻¹; in test [3], 0.000417 s⁻¹; in [4], 1.71e-05 s⁻¹; in the test with human IL-33 (mm2), 3.09e-05 s⁻¹; in [5] it was 0.000129 s⁻¹; in test [7], 0.00062 s⁻¹. Moreover, the koff in test [8] came to 0.00033 s⁻¹. The kon in [2] was 5.32e+06 M⁻¹ s⁻¹; in [3], 4.11e+06 M⁻¹ s⁻¹; in [4], 1.64e+06 M⁻¹ s⁻¹; with human IL-33 (mm2) it was 2.42e+06 M⁻¹ s⁻¹; in test [5], 1.86e+06 M⁻¹ s⁻¹; in test [7], 4.5e+06 M⁻¹ s⁻¹. Further, in [8], the kon was found to be 3.13e+06 M⁻¹ s⁻¹. Moreover, the “Ratio of cynomolgus monkey KD/human KD” value in [6] worked out at 1.3; in test [9], 2.3.

B3: IL33-167LS Fab (Fab, V domains shown)
VH: B2 VH with A50S, E62D
VL: B2 VL with Q93N
For the molecule B3, the Kd in [2] came out at 0.218 nM; in test [3], 0.089 nM; in test [4], 0.0134 nM; in the test with human IL-33 (mm2), 0.0101 nM; in test [5], 0.0452 nM; in test [7], 0.139 nM. This molecule also had a Kd in test [8] of 0.091 nM. The koff in test [2] turned out to be 0.00119 s⁻¹; in test [3], 0.00035 s⁻¹; in test [4] it was 2.09e-05 s⁻¹; with human IL-33 (mm2), 4.8e-05 s⁻¹; in test [5], 6.56e-05 s⁻¹; in [7] it was 0.000665 s⁻¹. The koff in test [8] was determined as 0.000276 s⁻¹. Also, the kon in [2] came out at 5.5e+06 M⁻¹ s⁻¹; in test [3] it was 3.96e+06 M⁻¹ s⁻¹; in [4], 1.57e+06 M⁻¹ s⁻¹; with human IL-33 (mm2) it was 4.75e+06 M⁻¹ s⁻¹; in test [5] it was 1.45e+06 M⁻¹ s⁻¹; in test [7], 4.81e+06 M⁻¹ s⁻¹. The same molecule had a kon in test [8] of 3.03e+06 M⁻¹ s⁻¹. The “Ratio of cynomolgus monkey KD/human KD” value in test [6] came out at 1.5; in test [9], 2.5.
